Measured values reported in article doi:10.1101/2024.05.05.592584 (bioRxiv, 2024).

Columns and labels:
Assay in all cases: BLI
Conditions in all cases: both partners purified
[1] = molecular target: SARS-CoV-2 Wuhan-Hu-1 NTD (SARS-CoV-2 Wuhan-Hu-1, UniProt P0DTC2)
[2] = molecular target: T1, SARS-CoV-2 HV.1 NTD (SARS-CoV-2 Omicron HV.1, strain)
T1 chain: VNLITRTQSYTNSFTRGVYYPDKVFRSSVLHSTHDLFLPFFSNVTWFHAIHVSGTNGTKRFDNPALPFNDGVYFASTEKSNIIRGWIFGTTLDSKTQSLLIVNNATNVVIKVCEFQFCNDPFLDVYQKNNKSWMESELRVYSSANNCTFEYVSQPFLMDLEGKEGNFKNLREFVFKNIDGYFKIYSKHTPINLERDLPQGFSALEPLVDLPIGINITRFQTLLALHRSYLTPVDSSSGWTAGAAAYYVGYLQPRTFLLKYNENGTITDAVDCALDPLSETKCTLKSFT

[3] = molecular target: SARS-CoV-2 Wuhan-Hu-1 RBD (SARS-CoV-2 Wuhan-Hu-1, UniProt P0DTC2)
[4] = molecular target: SARS-CoV-2 Wuhan-Hu-1 NTD protein (SARS-CoV-2 Wuhan-Hu-1, UniProt P0DTC2)
[5] = molecular target: SARS-CoV-2 RBD protein (SARS-CoV-2 Wuhan-Hu-1, UniProt P0DTC2)
[6] = molecular target: SARS-CoV-2 RBD-SD1 protein (SARS-CoV-2, Wuhan-Hu-1 lineage (GenBank …, UniProt A0A679G9E9))

B1: C1520 IgG (antibody, V domains shown)
VH: EVQLVESGGGLVQPGGSLRLACVASGFTFSIYEMNWVRQAPGKGLEWVSYITTSGHARYNADSVKGRFTISRDNSKNSFYLQMNSLRAEDTAIYYCARPQYHYYDTSTYHSYGFDIWGQGTMVTVSS
VL: QLVLTQSPSASASLGASVNLTCTLSSGHNSYAIAWHQQQPEKGPRYLMSLNSDGSHTKGDGIPDRFSGSSSGAERFLTISSLQSEDEADYYCQTWDTGIRVFGGGTRLTVL
notes: copies: 2 + 2
- Kd [1]: 24.8 nM
- koff [1]: 0.000393 s⁻¹
- kon [1]: 15900 M⁻¹ s⁻¹

B2: C1533 IgG (antibody, V domains shown)
VH: QVQLVQSGAEVKKPGSSVKVSCKTSGVIFSRNAFSWVRQAPGQGLEWMGRIIPFLDVTNSAQEFQGRVTLNADKSTSTVYMELSSLRSEDTAIYYCARHNGDPYDFWSGYNTWAGGLDVWGQGTTVTVSS
VL: QSVLTQPPSASGTPGQRVTISCSGSGSNIGSNAVNWYQQLPGTAPKLLIYNQNQRPSGVPDRFSGSKSGTSASLAIGGLQSEDEADYYCATWDDNLSGLVFGGGTKLTVL
notes: copies: 2 + 2
- Kd [1]: 17.1 nM
- koff [1]: 0.000547 s⁻¹
- kon [1]: 32000 M⁻¹ s⁻¹

B3: C1596 IgG (antibody, V domains shown)
VH: QVQLVQSGAEVKKPGSSVKVSCKASGGTFINYAVTWVRQAPGQGLEWMGGIIPILGIPNYAQKFQGRVTITADKSTSTAYMELSSLRSEDTAVYYCARVPQAGAAQGHYYYYYGMDVWGQGTTVTVSS
VL: not shown
notes: copies: 2 + 2
- Kd [1]: 125 nM
- Kd [2]: 553 nM

B4: C952 IgG (antibody, V domains shown)
VH: EVQLVQSGAEVKKPGESLTISCKDSGNSFTIYWIGWVRQMPGKGLEWMGMIYPGDSGTRYSPSFEGQVTISADESINTAYLQWRSLKASDTAMYYCVRGIAVDWYFDLWGRGTLVTVSS
VL: QSVLTQPPSVSGAPGQRVTISCTGSSSNIGAGFDVHWYQQLPGTAPKLLIYGNNNRPSGVPDRFSGSKSATSASLAITGLQAEDEADYYCQSSDSSLSGLYVFGTGTNVIVL
notes: copies: 2 + 2
- Kd [3]: 6.35 nM
- koff [3]: 0.00176 s⁻¹
- kon [3]: 278000 M⁻¹ s⁻¹

B5: C1596 Fab (Fab, V domains shown)
VH: B3 VH
VL: not shown
- Kd [4]: 160 nM
- binding result [5]: no binding
- binding result [6]: no binding
